Source: patent publication US20210269521A1 (L AND L BIOPHARMA, published 2021)

What was measured:
[1] = molecular target: T1, human PD-1 extracellular domain protein expressed in Example 1 (tag not stated) (human, UniProt Q15116 25-170); assay: ELISA; pH 5.5, 40°C 5 days
T1 construct: extracellular domain; also called PD-1 protein; not shown: human IgG1 Fc or his tag

[2] = molecular target: T2, human TIM-3 extracellular domain-human IgG1 Fc fusion protein (human, UniProt Q8TDQ0 22-199); assay: ELISA; pH 5.5, 40°C 5 days
T2 construct: Made in house or bought (ACROBiosystems TM3-H5258); also called TIM-3-hFc; not shown: human IgG1 Fc

[3] = molecular target: T1, human PD-1 extracellular domain protein …; assay: ELISA, EC50 of bispecific over EC50 of the monoclonal control
[4] = molecular target: T1, human PD-1 extracellular domain protein …; assay: ELISA; pH 5.5, 40°C 0 day (-80°C)
[5] = molecular target: T1, human PD-1 extracellular domain protein …; assay: ELISA; preparation buffer, 37°C 7 days, against 0 day
[6] = molecular target: T2, human TIM-3 extracellular domain-human …; assay: as above
[7] = molecular target: T1, human PD-1 extracellular domain protein …; assay: ELISA; preparation buffer, 0 day, against 0 day
[8] = molecular target: T2, human TIM-3 extracellular domain-human …; assay: ELISA; preparation buffer, 0 day, against 0 day
[9] = molecular target: T1, human PD-1 extracellular domain protein …; assay: ELISA; preparation buffer, 37°C 7 days
[10] = molecular target: T2, human TIM-3 extracellular domain-human …; assay: ELISA; preparation buffer, 37°C 7 days
[11] = molecular target: T3, TIM-3-hFc (Acro biosystems, 22-142) (human, UniProt Q8TDQ0 22-142); assay: double-sandwich ELISA: TIM-3-hFc coated, LB141 titrated, detected with PD-1-his and anti-his-HRP
T3 construct: Bought; not shown: human Fc (hFc)

[12] = molecular target: T1, human PD-1 extracellular domain protein …; assay: ELISA; PBS, 37°C 7 days
[13] = molecular target: T2, human TIM-3 extracellular domain-human …; assay: ELISA; PBS, 37°C 7 days
[14] = molecular target: T1, human PD-1 extracellular domain protein …; assay: ELISA, PD-1 coated
[15] = molecular target: T1, human PD-1 extracellular domain protein …; assay: ELISA; pH 5.5, 40°C 10 days, against 0 day
[16] = molecular target: T2, human TIM-3 extracellular domain-human …; assay: ELISA; pH 5.5, 40°C 10 days, against 0 day

B1: bispecific antibody LB141 (bispecific antibody, human IgG4 S228P, kappa)
light: EIVLTQSPATLSLSPGERATLSCRASKGVSTSGYSYLHWYQQKPGQAPRLLIYLASYLESGVPARFSGSGSGTDFTLTISSLEPEDFAVYYCQHSRDLPLTFGGGTKVEIKRTVAAPSVFIFPPSDEQLKSGTASVVCLLNNFYPREAKVQWKVDNALQSGNSQESVTEQDSKDSTYSLSSTLTLSKADYEKHKVYACEVTHQGLSSPVTKSFNRGEC
heavy: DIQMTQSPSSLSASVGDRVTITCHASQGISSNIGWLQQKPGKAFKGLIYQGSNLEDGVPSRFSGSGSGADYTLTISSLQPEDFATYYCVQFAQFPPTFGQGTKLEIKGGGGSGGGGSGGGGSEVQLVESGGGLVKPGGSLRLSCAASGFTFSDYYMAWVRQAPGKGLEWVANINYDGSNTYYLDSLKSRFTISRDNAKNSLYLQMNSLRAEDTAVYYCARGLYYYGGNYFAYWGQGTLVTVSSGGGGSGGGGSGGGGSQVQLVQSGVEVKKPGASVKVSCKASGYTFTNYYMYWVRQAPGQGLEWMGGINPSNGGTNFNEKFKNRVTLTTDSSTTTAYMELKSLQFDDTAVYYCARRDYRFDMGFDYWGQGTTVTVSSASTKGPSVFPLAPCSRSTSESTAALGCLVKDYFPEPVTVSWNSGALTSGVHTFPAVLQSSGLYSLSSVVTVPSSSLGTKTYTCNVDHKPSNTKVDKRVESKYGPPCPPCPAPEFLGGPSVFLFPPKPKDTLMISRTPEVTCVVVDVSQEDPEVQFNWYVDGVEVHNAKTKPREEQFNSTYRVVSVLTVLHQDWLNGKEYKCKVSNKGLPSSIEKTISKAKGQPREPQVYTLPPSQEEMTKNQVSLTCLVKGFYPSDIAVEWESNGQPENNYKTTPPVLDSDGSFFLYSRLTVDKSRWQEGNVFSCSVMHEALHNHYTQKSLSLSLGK
notes: ab6VL-(G4S)3-ab6VH-(G4S)3-PemVH-hIgG4 with PemVL-κ
[1]
  EC50: 0.2 nM
[2]
  EC50: 0.341 nM
[3]
  Multiple of EC50 variation: 1.32 ratio
[4]
  EC50: 0.181 nM
[5]
  Fold change of EC50: 0.86 ratio
[6]
  Fold change of EC50: 1.07 ratio
[7]
  Fold change of EC50: 1 ratio
[8]
  Fold change of EC50: 1 ratio
[9]
  EC50: 0.331 nM
[10]
  EC50: 0.325 nM
[11]
  EC50: 0.931 nM
[12]
  EC50: 0.339 nM
[13]
  EC50: 0.325 nM
[14]
  EC50: 0.127 nM
[15]
  Fold change of EC50: 1.19 ratio
[16]
  Fold change of EC50: 1.04 ratio
